Source: article PMC10567733, “C9orf72-catalyzed GTP loading of Rab39A enables HOPS-mediated membrane tethering and fusion in mammalian autophagy” (Nature Communications, 2023)

B1: GST-Rab39A (natural protein, human, UniProt Q14964 1-217, looked up)
chain: METIWIYQFRLIVIGDSTVGKSCLLHRFTQGRFPGLRSPACDPTVGVDFFSRLLEIEPGKRIKLQLWDTAGQERFRSITRSYYRNSVGGFLVFDITNRRSFEHVKDWLEEAKMYVQPFRIVFLLVGHKCDLASQRQVTREEAEKLSADCGMKYIETSAKDATNVEESFTILTRDIYELIKKGEICIQDGWEGVKSGFVPNTVHSSEEAVKPRKECFC
notes: Rab39A, human, cloned from human cDNA; unprenylated; also called GST-R39A; purified Rab39A; source: E. coli BL21 (DE3), purified (Glutathione Sepharose); not shown: GST, N-terminal, kept
B2: GST-Rab39B (natural protein, human, UniProt Q96DA2 1-213, looked up)
chain: MEAIWLYQFRLIVIGDSTVGKSCLIRRFTEGRFAQVSDPTVGVDFFSRLVEIEPGKRIKLQIWDTAGQERFRSITRAYYRNSVGGLLLFDITNRRSFQNVHEWLEETKVHVQPYQIVFVLVGHKCDLDTQRQVTRHEAEKLAAAYGMKYIETSARDAINVEKAFTDLTRDIYELVKRGEITIQEGWEGVKSGFVPNVVHSSEEVVKSERRCLC
notes: Rab39B, human, cloned from human cDNA; unprenylated; also called GST-R39B; purified Rab39B; source: E. coli BL21 (DE3), purified (Glutathione Sepharose); not shown: GST, N-terminal, kept

Key:
[1] = biological target: T1, VPS41-Flag (human, UniProt P49754 1-854); test: pull-down; Glutathione Sepharose beads bound with GST, GST-Rab39A or GST-Rab39B, incubated with the purified protein for one hour, washed, boiled, immunoblot; settings: both partners purified
T1 construct: VPS41, human, cloned from human cDNA (293T cells); also called V41; not shown: Flag, C-terminal, kept
T1 sequence (looked up): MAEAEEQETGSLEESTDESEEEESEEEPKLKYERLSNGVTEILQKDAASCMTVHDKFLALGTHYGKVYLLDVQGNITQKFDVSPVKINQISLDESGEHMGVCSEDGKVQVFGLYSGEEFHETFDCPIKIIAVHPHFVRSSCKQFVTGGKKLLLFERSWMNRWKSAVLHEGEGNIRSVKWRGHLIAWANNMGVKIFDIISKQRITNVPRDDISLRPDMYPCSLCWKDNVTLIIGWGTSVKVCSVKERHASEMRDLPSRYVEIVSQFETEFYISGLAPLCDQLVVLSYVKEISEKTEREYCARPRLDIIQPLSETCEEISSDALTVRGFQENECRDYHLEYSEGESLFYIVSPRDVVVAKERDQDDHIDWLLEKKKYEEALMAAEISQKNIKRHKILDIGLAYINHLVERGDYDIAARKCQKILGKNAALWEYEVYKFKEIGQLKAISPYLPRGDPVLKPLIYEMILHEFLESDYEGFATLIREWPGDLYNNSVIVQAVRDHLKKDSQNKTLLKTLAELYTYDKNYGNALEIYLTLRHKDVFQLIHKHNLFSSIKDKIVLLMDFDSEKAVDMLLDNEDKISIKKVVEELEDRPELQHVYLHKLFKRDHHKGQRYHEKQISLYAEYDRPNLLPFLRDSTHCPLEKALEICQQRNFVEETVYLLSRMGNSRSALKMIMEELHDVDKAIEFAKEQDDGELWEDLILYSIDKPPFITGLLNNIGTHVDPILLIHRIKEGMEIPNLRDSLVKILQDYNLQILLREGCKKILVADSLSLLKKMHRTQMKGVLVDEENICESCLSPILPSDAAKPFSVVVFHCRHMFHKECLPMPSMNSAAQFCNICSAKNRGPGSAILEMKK

[2] = biological target: T2, Myc-C9orf72 (human, UniProt Q96LT7 1-481); test: as above; settings: both partners purified
T2 construct: C9orf72, human, cloned from human cDNA; source: E. coli BL21 (DE3), purified (Glutathione Sepharose, eluted by TEV cleavage or GSH); not shown: Myc, N-terminal, kept
T2 sequence (looked up): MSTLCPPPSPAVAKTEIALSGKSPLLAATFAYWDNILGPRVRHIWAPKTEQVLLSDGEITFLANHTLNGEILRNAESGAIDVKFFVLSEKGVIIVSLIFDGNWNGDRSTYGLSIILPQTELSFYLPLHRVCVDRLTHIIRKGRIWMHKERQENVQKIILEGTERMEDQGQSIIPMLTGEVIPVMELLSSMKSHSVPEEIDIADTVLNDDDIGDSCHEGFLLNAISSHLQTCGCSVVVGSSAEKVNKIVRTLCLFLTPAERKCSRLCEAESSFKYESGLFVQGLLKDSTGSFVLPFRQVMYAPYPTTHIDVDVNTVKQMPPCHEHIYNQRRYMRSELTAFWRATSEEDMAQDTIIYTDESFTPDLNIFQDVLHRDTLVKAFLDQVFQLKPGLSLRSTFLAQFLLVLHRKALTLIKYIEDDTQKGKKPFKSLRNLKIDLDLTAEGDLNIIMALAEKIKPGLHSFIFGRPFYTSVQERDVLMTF

Binder	binding result [1]	binding result [2]
B1	binds	binds
B2	binds	binds
